Values of other authors, collected in patent publication EP1140148B1, “SHELF-STABLE SOLUTION FORMULATION OF GLUCAGON-LIKE PEPTIDE-1” (ELI LILLY AND COMPANY, priority 1998, dated 2005).

Details: stored at 4° C; as early as; Mojsov 1992

## GLP-1(7-37): Glucagon-like peptide-1 (7-37), insulinotropic peptide hormone
  by-products found after sample preparation: eleven
